Columns and labels:
[1] = biological target: thrombospondin (TSP), immobilized (UniProt P07996); assay: cytoadherence assay, IEs on immobilized TSP, mean and SD of triplicates
[2] = biological target: Partially purified CD36 (CD36 fraction) from human platelets, immobilized (human) (UniProt P16671); assay: cytoadherence assay, IEs on immobilized CD36, mean and SD of triplicates
Chain of Partially purified CD36 (CD36 fraction) from human platelets, immobilized (human) (P16671 2-472 limits assumed, form in doubt): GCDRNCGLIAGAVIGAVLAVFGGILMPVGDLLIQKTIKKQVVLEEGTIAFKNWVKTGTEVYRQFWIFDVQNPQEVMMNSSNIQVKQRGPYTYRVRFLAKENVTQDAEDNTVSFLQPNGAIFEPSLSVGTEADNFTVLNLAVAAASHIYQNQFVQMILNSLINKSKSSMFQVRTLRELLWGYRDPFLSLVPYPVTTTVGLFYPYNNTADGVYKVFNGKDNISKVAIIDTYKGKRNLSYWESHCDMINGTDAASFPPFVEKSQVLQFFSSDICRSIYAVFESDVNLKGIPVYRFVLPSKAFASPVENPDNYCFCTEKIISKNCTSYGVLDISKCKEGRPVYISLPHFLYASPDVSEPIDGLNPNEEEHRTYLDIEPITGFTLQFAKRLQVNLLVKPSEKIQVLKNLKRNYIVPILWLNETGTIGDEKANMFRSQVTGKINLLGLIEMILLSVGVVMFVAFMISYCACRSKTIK

Chain of thrombospondin (TSP), immobilized (P07996 19-1170 limits assumed): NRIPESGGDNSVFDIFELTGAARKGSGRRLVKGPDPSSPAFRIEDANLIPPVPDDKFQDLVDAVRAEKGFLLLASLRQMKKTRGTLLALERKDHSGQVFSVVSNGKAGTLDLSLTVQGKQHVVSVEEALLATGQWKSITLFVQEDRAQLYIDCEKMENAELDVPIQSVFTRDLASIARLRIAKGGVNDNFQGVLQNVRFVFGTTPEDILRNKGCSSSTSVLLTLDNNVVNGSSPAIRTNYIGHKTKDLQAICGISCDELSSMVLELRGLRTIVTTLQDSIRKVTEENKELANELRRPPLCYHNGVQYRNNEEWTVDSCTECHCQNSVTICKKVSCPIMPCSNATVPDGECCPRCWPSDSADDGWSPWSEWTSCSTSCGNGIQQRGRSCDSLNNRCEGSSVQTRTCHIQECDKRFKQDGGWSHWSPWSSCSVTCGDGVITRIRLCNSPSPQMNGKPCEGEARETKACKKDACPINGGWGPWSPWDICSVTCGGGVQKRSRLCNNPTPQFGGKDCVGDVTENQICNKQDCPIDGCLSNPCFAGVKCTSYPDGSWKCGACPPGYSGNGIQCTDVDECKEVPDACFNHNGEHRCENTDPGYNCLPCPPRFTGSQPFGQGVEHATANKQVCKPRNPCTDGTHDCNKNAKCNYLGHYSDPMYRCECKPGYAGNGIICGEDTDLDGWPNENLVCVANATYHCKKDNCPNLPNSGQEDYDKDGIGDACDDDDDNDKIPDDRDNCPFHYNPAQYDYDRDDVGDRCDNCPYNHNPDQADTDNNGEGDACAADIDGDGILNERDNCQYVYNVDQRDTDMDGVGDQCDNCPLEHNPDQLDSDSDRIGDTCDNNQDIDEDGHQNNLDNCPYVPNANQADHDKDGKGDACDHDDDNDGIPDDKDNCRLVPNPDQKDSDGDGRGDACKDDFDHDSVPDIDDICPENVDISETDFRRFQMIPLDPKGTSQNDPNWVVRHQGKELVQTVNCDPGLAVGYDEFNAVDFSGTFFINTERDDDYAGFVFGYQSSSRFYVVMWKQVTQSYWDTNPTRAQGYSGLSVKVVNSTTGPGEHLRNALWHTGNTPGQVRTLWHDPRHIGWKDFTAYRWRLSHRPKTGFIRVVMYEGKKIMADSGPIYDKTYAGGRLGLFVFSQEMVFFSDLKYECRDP

Chymotrypsin cleaved AE1 on infected erythrocytes (from UniProt P02730 1-911)
percentage of bound IEs/mm^2 as compared to untreated cells [1]: 81% | percentage of bound IEs/mm^2 as compared to untreated cells [2]: 10.2%

Reference: patent US20050059588A1, “Peptides which generate antibodies resulting in lysis of pathologically adherent erythrocytes” (REGENTS OF THE UNIVERSITY OF CALIFORNIA, priority 2003, published 2005)
